Test results as given in patent publication EP4703387A1 (University of Tsukuba, dated 2026).
Blank lines part the entries; values can stand above or below the binder they belong to.

Tests used:
human CD300A-Q [1] = target: T1, human CD300A-Q (human, UniProt Q9UGN4 18-299); assay: flow cytometry analysis using CD300A-Q
T1 construct: whole, on cells; also called huCD300A-Q; human CD300A^Gln111
T1 sequence (looked up): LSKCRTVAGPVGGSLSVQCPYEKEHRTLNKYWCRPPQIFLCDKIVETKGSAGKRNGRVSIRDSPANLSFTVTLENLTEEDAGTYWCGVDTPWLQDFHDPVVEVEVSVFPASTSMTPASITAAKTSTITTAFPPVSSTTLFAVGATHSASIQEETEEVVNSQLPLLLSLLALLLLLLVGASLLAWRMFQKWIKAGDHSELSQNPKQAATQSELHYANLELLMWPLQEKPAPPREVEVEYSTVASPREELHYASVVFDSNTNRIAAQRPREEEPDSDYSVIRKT

human CD300C [2] = target: T2, human CD300C (human, UniProt Q08708 21-224); assay: flow cytometry on BW/huCD300C cells, biotinylated antibody with SA-APC
T2 construct: whole, on cells; also called huCD300C; BW/huCD300C
T2 sequence (looked up): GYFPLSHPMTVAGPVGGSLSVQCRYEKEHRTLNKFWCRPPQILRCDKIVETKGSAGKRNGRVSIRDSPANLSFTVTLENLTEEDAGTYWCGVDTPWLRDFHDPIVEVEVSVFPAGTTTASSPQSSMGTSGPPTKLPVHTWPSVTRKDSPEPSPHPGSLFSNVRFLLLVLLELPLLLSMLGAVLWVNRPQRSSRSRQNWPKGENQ

[3] = target: T3, human CD300A-R (as used in the BLI measurement) (human, UniProt Q9UGN4 18-180, limits assumed); assay: biolayer interferometry (BLI); format not described
T3 sequence (looked up): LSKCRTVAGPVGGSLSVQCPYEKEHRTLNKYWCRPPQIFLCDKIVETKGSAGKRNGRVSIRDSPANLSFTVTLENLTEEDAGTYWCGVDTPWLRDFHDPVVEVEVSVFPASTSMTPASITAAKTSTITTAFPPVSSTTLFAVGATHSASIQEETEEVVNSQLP

human CD300A-Q [4] = target: T1, human CD300A-Q; assay: assay not named for Hu NO. 1V on CD300A-Q (CD300A-Q flow cytometry is listed for Hu NO. 1R, 1U and 1W)
human CD300A-Q [5] = target: T1, human CD300A-Q; assay: assay not named for Hu NO. 1T on CD300A-Q (CD300A-Q flow cytometry is listed for Hu NO. 1R, 1U and 1W)
human CD300A-Q [6] = target: T1, human CD300A-Q; assay: flow cytometry on BW/huCD300A-Q cells, purified antibody, 0.5 µg per 1 × 10^5 cells
human CD300C [7] = target: T2, human CD300C; assay: flow cytometry on BW/huCD300C cells, purified antibody
human CD300A-Q [8] = target: T1, human CD300A-Q; assay: assay not given; reference antibody in the CD300A-Q flow cytometry comparison of paragraph 258

B1: HuNO.1R (antibody, V domains shown)
VH: EVQLVESGGGLVQPGGSLRLSCAASGFTFSSYGMSWVRQAPGKRLEWVATISSGGSYTYYPDSVKGRFTISRDNAKNSLYLQMNSLRAEDTAVYYCARHGDYGYPWFAYWGQGTMVTVSS
VL: QIQMTQSPSSLSASVGDRVTMTCTASSSVSSSYLHWYQQKPGKAPKLWIYSTSNLASGVPSRFSGSGSGTDYTLTISSLQPEDFATYYCHQYHRSHTFGGGTKVEIK
notes: Transient HEK293 supernatant; Human IgG/kappa constant regions
- binding result (human CD300A-Q [1]): binds

B3: HuNO.1V (antibody, V domains shown)
VH: EVQLVESGGGLVQPGGSLRLSCAASGFTFSSYGMSWVRQAPGKRLEWVATISSGGSYTYYPDSVKGRFTISRDNAKNSLYLQMNSLRAEDTAMYYCARHGDYGYPWFAYWGQGTMVTVSS
VL: QIQMTQSPSSLSASVGDRVTMTCTASSSVSSSYLHWYQQKPGKAPKLWIYSTSNLASGVPSRFSGSGSGTDYTLTISSLQPEDFATYYCHQYHRSHTFGGGTKVEIK
notes: Position 89 may be a Kabat number rather than a count on the entry; Transient HEK293 supernatant; Human IgG/kappa constant regions
- binding result (human CD300A-Q [4]): binds

B4: HuNO.1T (antibody, V domains shown)
VH: EVQLVESGGGLVQPGGSLKLSCAASGFTFSSYGMSWVRQAPGKRLEWVATISSGGSYTYYPDSVKGRFTISRDNAKNSLYLQMNSLRAEDTAVYYCARHGDYGYPWFAYWGQGTMVTVSS
VL: QIQMTQSPSSLSASVGDRVTMTCTASSSVSSSYLHWYQQKPGKAPKLWIYSTSNLASGVPSRFSGSGSGTDYTLTISSLQPEDFATYYCHQYHRSHTFGGGTKVEIK
notes: as for B1
- binding result (human CD300A-Q [5]): binds

B5: HuNO.1W (antibody, V domains shown)
VH: EVQLVESGGDLVQPGGSLRLSCAASGFTFSSYGMSWVRQAPGKRLEWVATISSGGSYTYYPDSVKGRFTISRDNAKNSLYLQMNSLRAEDTAVYYCARHGDYGYPWFAYWGQGTMVTVSS
VL: QIQMTQSPSSLSASVGDRVTMTCTASSSVSSSYLHWYQQKPGKAPKLWIYSTSNLASGVPSRFSGSGSGTDYTLTISSLQPEDFATYYCHQYHRSHTFGGGTKVEIK
notes: as for B1
- binding result (human CD300A-Q [1]): binds

B6: Antibody NO. 1 (antibody, V domains shown)
VH: EVQLVESGGDLVKPGGSLKLSCAASGFTFSSYGMSWVRQTPDKRLEWVATISSGGSYTYYPDSVKGRFTISRDNAKNTLYLQMSSLKSEDTAMYYCARHGDYGYPWFAYWGQGTLVTVSA
VL: QIVLTQSPAIMSASLGERVTMTCTASSSVSSSYLHWYQQKPGSSPKLWIYSTSNLASGVPARFSGSGSGTSYSLTISSMEAEDAATYYCHQYHRSHTFGGGTKLEIK
notes: Mouse monoclonal antibody from a hybridoma, purified from ascites; also called mouse Antibody NO
- binding result (human CD300A-Q [6]): binds
- binding result (human CD300C [7]): no binding (tested: 0.5 µg antibody per 1 × 10^5 cells)

Further lines, with some results ahead:

- Kd [3]: 22 nM
B2: HuNO.1U (antibody, human IgG1, kappa, L234A L235A, V domains shown)
VH: EVQLVESGGGLVQPGGSLRLSCAASGFTFSSYGMSWVRQAPDKRLEWVATISSGGSYTYYPDSVKGRFTISRDNAKNSLYLQMNSLRAEDTAVYYCARHGDYGYPWFAYWGQGTMVTVSS
VL: QIQMTQSPSSLSASVGDRVTMTCTASSSVSSSYLHWYQQKPGKAPKLWIYSTSNLASGVPSRFSGSGSGTDYTLTISSLQPEDFATYYCHQYHRSHTFGGGTKVEIKR
notes: VH = Hu NO; also called Humanized NO; 1 antibody
- binding result (human CD300C [2]): no binding (tested: 0.5 µg antibody per 1 × 10^5 cells)

- binding result (human CD300A-Q [8]): binds
B7: chimeric NO. 1 IgG1/kappa antibody (Ch NO. 1) (antibody, V domains shown)
VH: EVQLVESGGDLVKPGGSLKLSCAASGFTFSSYGMSWVRQTPDKRLEWVATISSGGSYTYYPDSVKGRFTISRDNAKNTLYLQMSSLKSEDTAMYYCARHGDYGYPWFAYWGQGTLVTVSA
VL: QIVLTQSPAIMSASLGERVTMTCTASSSVSSSYLHWYQQKPGSSPKLWIYSTSNLASGVPARFSGSGSGTSYSLTISSMEAEDAATYYCHQYHRSHTFGGGTKLEIK
notes: Mouse NO; 1 VH and VL on human γ-1 and κ constant regions; The γ-1 chain carries L234A/L235A; also called mouse-human chimeric NO; 1 IgG1/kappa antibody

- binding result (human CD300A-Q [6]): binds
B8: Antibody NO. 3 (antibody, V domains shown)
VH: QIQLVQSGPELKKPGETVKISCKASGYTFTHYGLNWVKQAPGKGLQWMGWIHTYTGESTYADDFKGRSAFSLETSASTAYLQINNLKNEDTATYFCARGGKDALDYWGQGTSVTVSS
VL: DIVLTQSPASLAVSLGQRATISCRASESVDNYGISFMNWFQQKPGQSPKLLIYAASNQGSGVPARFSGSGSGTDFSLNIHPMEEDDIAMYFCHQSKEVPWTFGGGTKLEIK
notes: Mouse monoclonal antibody from a hybridoma
- binding result (human CD300C [7]): no binding (tested: 0.5 µg antibody per 1 × 10^5 cells)
